For 32 variants, self-cleavage results are on record in the RNAGym collection of RNA variant scans (doi:10.7554/elife.80360).

Sequences and labels used below:
B1: HDV Ribozyme (parent)
chain: GGCCGGCAUGGUCCCAGCCUCCUCGCUGGCGCCGGCUGGGCAACAUUCCGAGGGGACCGUCCCCUCGGUAAUGGCGAAUGGGACCCA

In the series the parent is B1. The experiment in a line: self-cleavage, relative activity (ratio to wild type); higher = more cleavage; co-transcriptional.
As to GGCCGGCAUGGUCCCAGCCUCCUUGCUGGCGCCGGCUGGGCAACAUUCCGAGGGGACCGUCCCCUCGGUAAUCGCGAAUGGGACCCA, the self-cleavage came out at 0.0773.

Consider GGCCGGCAUGGUCCCAGCCUCCUUGCUGGCGCCGGCUGGGCAACAUUCCGAGGGGACCGUCCCCUCGGUAAUGGCGAAAGGGACCCA, for which the self-cleavage stood at 0.208.

For GGCCGGCAUGGUCCCAGCCUCCUCACUGGCGCCGGCUGGGCAACAUUCCGAGGGGACCGUCCCCUCGGUCAUGGCGAAUGGGACCCA, the self-cleavage worked out at 0.138.

For the variant GGCCGGCAUGGUCCCAGCCUCCUCACUGGCGCCGGCUGGGCAACAUUCCGAGGGGACCGUCCCCUCGGUUAUGGCGAAUGGGACCCA, the self-cleavage is 0.17.

Regarding GGCCGGCAUGGUCCCAGCCUCCUUGCUGGCGCCGGCUGGGCAACAUUCCGAGGGGACCGUCCCCUCCGUAAUGGCGAAUGGGACCCA, the self-cleavage is 0.78.

In the case of GGCCGGCAUGGUCCCAGCCUCCUUGCUAGCGCCGGCUGGGCAACAUUCCGAGGGGACCGUCCCCUCGGUAAUGGCGAAUGGGACCCA, the self-cleavage was determined as 0.172.

GGCCGGCAUGGUCCCAGCCUCCUUGCUCGCGCCGGCUGGGCAACAUUCCGAGGGGACCGUCCCCUCGGUAAUGGCGAAUGGGACCCA: the self-cleavage was determined as 0.0475.

For GGCCGGCAUGGUCCCAGCCUCCUCACUGGCGCCGGCUGGGCCACAUUCCGAGGGGACCGUCCCCUCGGUAAUGGCGAAUGGGACCCA, the self-cleavage was determined as 0.0462.

Turning to GGCCGGCAUGGUCCCAGCCUCCUUGCUGGCGCCGGCUGGGGAACAUUCCGAGGGGACCGUCCCCUCGGUAAUGGCGAAUGGGACCCA, the self-cleavage worked out at 0.437.

GGCCGGCAUGGUCCCAGCCUCCUUGCUGGCGCCGGCUGGGUAACAUUCCGAGGGGACCGUCCCCUCGGUAAUGGCGAAUGGGACCCA: the self-cleavage came to 0.616.

As for GGCCGGCAUGGUCCCAGCCUCCUUGCUGGCGCCGGCUGGGCAACAUUCCGAGGGGACCGUCCCCUCGGUAAUGUCGAAUGGGACCCA, the self-cleavage is 0.143.

As to GGCCGGCAUGGUCCCAGCCUCCUUGCUGGCGCCGGCUGGGCAACAUUCCGAGGGGACCGUCCCCUCGGUAAUGGCGAAUGUGACCCA, the self-cleavage worked out at 0.169.

For GGCCGGCAUGGUCCCAGCCUCCUUGCUGGCGCCGGCUGGGCAACAUUCCGAGGGGACAGUCCCCUCGGUAAUGGCGAAUGGGACCCA, the self-cleavage is 0.789.

For the variant GGCCGGCAUGGUCCCAGCCUCCUUGCUGGCGCCGGCUGGGCAACAUUCCGAGGGGACUGUCCCCUCGGUAAUGGCGAAUGGGACCCA, the self-cleavage turned out to be 0.772.

On to GGCCGGCAUGGUCCCAGCCUCCUUGCUGGCGCCGGCUGGGCAACAUUCCGAGGGGACGGUCCCCUCGGUAAUGGCGAAUGGGACCCA, for which the self-cleavage came out at 0.811.

Consider GGCCGGCAUGGUCCCAGCCUCCUUGCUGGCGCCGACUGGGCAACAUUCCGAGGGGACCGUCCCCUCGGUAAUGGCGAAUGGGACCCA, for which the self-cleavage was 0.372.

On to GGCCGGCAUGGUCCCAGCCUCCUUGCUGGCGCCGCCUGGGCAACAUUCCGAGGGGACCGUCCCCUCGGUAAUGGCGAAUGGGACCCA, for which the self-cleavage was 0.0339.

As for GGCCGGCAUGGUCCCAGCCUCCUUGCUGGCGCCGUCUGGGCAACAUUCCGAGGGGACCGUCCCCUCGGUAAUGGCGAAUGGGACCCA, the self-cleavage was 0.131.

For GGCCGGCAUGGUCCCAGCCUCCUUGCUGGCGCCGGCUGGGCAACAUUCCGAGGGGACCGUCCCCUCGGUAAUGGAGAAUGGGACCCA, the self-cleavage is 0.0639.

Consider GGCCGGCAUGGUCCCAGCCUCCUUGCUGGCGCCGGCUGGGCAACAUUCCGAGGGGACCGUCCCCUCGGUAAUGGCGAAUGGAACCCA, for which the self-cleavage was found to be 0.107.

In the case of GGCCGGCAUGGUCCCAGCCUCCUUGCUGGCGCCGGCUGGGCAACAUUCCGAGGGGACCGUCCCCUCGGUAAAGGCGAAUGGGACCCA, the self-cleavage is 0.404.

GGCCGGCAUGGUCCCAGCCUCCUUGCUGGCGCCGGCUGGGCAAUAUUCCGAGGGGACCGUCCCCUCGGUAAUGGCGAAUGGGACCCA: the self-cleavage is 0.434.

Turning to GGCCGGCAUGGUCCCAGCCUCCUUGCUGGCGCCGGCUGGACAACAUUCCGAGGGGACCGUCCCCUCGGUAAUGGCGAAUGGGACCCA, the self-cleavage amounted to 0.701.

Take GGCCGGCAUGGUCCCAGCCUCCUUGCUGGCGCCGGCUGGUCAACAUUCCGAGGGGACCGUCCCCUCGGUAAUGGCGAAUGGGACCCA: the self-cleavage came out at 0.337.

Consider GGCCGGCAUGGUCCCAGCCUCCUUGCUGGCGCCGGCUGGGCAACAUUCCGAGGGGACCGUCCCCACGGUAAUGGCGAAUGGGACCCA, for which the self-cleavage was determined as 0.469.

Consider GGCCGGCAUGGUCCCAGCCUCCUUGCUGGCGCCGGCUGGGCAACAUUCCGAGGGGACCCUCCCCUCGGUAAUGGCGAAUGGGACCCA, for which the self-cleavage was 0.845.

As for GGCCGGCAUGGUCCCAGCCUCCUUGCUGGCGCCGGCUGGGCAACAUUGCGAGGGGACCGUCCCCUCGGUAAUGGCGAAUGGGACCCA, the self-cleavage is 0.627.

Regarding GGCCGGCAUGGUCCCAGCCUCCUUGCUGGCGCCGGCUGGGCAACAUUCCGAGCGGACCGUCCCCUCGGUAAUGGCGAAUGGGACCCA, the self-cleavage is 0.848.

On to GGCCGGCAUGGUCCCAGCCUCCUUGCUGGCGCCGGCUGGGCAACAUUCCGAGGGGACCGUCCCCUCGGUAAUGGCGAAUGGGAUCCA, for which the self-cleavage is 0.53.

On to GGCCGGCAUGGUCCCAGCCUCCUUGCUGGCGCCGGCUAGGCAACAUUCCGAGGGGACCGUCCCCUCGGUAAUGGCGAAUGGGACCCA, for which the self-cleavage stood at 0.0863.

As for GGCCGGCAUGGUCCCAGCCUCCUUGCUGGCGCCGGCUGGGCAACAUUCCAAGGGGACCGUCCCCUCGGUAAUGGCGAAUGGGACCCA, the self-cleavage came to 0.726.

Regarding GGCCGGCAUGGUCCCAGCCUCCUUGCUGGCGCCGGCUGGGCAACAUUCCCAGGGGACCGUCCCCUCGGUAAUGGCGAAUGGGACCCA, the self-cleavage came out at 0.554.
